T1: cLac2 (endogenous cuticular laccase-2) (Manduca sexta, UniProt Q8I8Y0)
T1 sequence (Q8I8Y0 142-760): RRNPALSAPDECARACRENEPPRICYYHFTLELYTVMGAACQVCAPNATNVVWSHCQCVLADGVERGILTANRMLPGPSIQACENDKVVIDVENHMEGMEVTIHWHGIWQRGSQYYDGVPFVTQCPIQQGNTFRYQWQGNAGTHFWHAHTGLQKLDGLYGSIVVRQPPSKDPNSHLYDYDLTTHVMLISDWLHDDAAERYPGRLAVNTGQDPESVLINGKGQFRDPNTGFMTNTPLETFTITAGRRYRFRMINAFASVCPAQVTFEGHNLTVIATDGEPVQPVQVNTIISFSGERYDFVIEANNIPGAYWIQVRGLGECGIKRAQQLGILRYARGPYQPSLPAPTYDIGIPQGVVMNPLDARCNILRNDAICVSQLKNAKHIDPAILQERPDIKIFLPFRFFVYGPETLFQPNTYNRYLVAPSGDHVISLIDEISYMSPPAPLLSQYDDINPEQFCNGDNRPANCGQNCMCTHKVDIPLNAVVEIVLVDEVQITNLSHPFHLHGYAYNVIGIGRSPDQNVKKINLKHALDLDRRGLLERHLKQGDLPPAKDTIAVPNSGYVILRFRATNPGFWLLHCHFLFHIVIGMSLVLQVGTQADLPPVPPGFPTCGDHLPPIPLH

T2: rLac2 (full-length recombinant laccase-2) (Manduca sexta, UniProt Q8I8Y0)
T2 sequence (Q8I8Y0 24-760): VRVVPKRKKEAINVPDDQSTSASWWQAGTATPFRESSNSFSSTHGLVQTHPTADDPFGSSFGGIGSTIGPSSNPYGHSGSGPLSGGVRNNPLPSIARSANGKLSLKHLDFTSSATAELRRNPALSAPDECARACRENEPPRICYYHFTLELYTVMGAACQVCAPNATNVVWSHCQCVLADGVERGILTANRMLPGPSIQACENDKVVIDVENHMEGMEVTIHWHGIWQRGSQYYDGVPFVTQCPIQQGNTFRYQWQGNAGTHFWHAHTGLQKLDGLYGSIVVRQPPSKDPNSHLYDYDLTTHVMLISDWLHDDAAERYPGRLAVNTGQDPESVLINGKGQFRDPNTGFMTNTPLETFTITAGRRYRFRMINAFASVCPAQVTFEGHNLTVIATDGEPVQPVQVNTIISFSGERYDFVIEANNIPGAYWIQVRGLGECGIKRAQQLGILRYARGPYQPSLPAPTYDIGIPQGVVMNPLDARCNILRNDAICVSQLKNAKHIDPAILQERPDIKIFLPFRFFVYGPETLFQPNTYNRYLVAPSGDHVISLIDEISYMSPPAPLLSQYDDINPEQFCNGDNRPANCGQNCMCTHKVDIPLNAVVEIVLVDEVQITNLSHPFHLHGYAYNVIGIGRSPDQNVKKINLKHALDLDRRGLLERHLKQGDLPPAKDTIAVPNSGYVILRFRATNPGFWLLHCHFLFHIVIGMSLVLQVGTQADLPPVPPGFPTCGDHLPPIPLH

B1: rLac2 (full-length recombinant laccase-2) (Manduca sexta) (protein)
chain: T2 sequence (Q8I8Y0 24-760)
B2: cLac2 (endogenous cuticular laccase-2) (Manduca sexta) (protein)
chain: T1 sequence (Q8I8Y0 142-760)

How the values were obtained:
[1] = target: T1, cLac2 (endogenous cuticular laccase-2); test: spectrophotometric, quinone formation at […] nm; assay type: biochemical; conditions: substrate inhibition (uncompetitive) constant; 100 mM sodium citrate pH 5; air
[2] = target: T2, rLac2 (full-length recombinant laccase-2); test: spectrophotometric, quinone formation at […] nm; assay type: biochemical; conditions: substrate inhibition (uncompetitive) constant; 100 mM sodium citrate pH 5; air
purified protein [3] = substrate: CC(=O)NCCc1ccc(O)c(O)c1; test: purified protein; assay type: biochemical, Manduca sexta; conditions: 100 mM sodium citrate pH 5, air
purified protein [4] = substrate: CCn1c(=NN=c2sc3cc(S(=O)(=O)O)ccc3n2CC)sc2cc(S(=O)(=O)O)ccc21; test: purified protein; assay type: biochemical, Manduca sexta; conditions: 100 mM sodium citrate pH 5, air, data not shown

Ksi [1] | Ksi [2] | Molecule | Km (purified protein [3]) | Vmax (purified protein [3]) | kcat (purified protein [3]) | kcat/Km (purified protein [3]) | Km (purified protein [4]) | kcat (purified protein [4])
9.7 ± 1.3 mM | 6.7 ± 1.4 mM | NCCC(=O)NCCc1ccc(O)c(O)c1 [NBAD] | – | – | – | – | – | –
– | – | B1 | 460 ± 50 µM | 3.1 ± 0.1 µM/min | 1.67 ± 0.05 s⁻¹ | 3670 M⁻¹ s⁻¹ | – | –
– | – | B2 | 630 ± 50 µM | 10.5 ± 0.25 µM/min | 4.83 ± 0.117 s⁻¹ | 7670 M⁻¹ s⁻¹ | 1500 µM | 7.67 s⁻¹
